In the supplement of paper PMC10567573 one finds protein stability index data, which are given here for 94 variants.

The chains are these.
B1: ZNF8 (parent)
chain: RTHTGEKPYTCSVCGKSFSRTTCL
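Also: lentivirally expressed fusions sorted by FACS into six bins by GFP to DsRed ratio, PSI derived from sequencing read proportions per bin multiplied by bin number.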

Variants of B1 are the subject of this data set. The data set is described as follows: protein stability index of a GFP-peptide fusion (GPS, HEK-293T) (PSI 1-6); higher = more stable. The settings on record: c terminus: a fixed tail appended.
For the variant RTHTGEKPYTCSVCGKSHSRTTCL [F18H], the protein stability index came to 4.78.

Turning to RTHTGEKPYTCSVCGKSISRTTCL [F18I], the protein stability index stood at 1.54.

Consider RTHTGEKPYTCSVCGKSKSRTTCL [F18K], for which the protein stability index was 2.5.

For the variant RTHTGEKPYTCSVCGKSLSRTTCL [F18L], the protein stability index was determined as 3.4.

RTHTGEKPYTCSVCGKSESRTTCL [F18E]: the protein stability index amounted to 3.37.

For RTHTGEKPYTCSVCGKSDSRTTCL [F18D], the protein stability index came to 2.92.

For the variant RTHTGEKPYTCSVCGKSGSRTTCL [F18G], the protein stability index worked out at 2.84.

Regarding RTHTGEKPYTCSVCGKSCSRTTCL [F18C], the protein stability index was found to be 3.45.

As for RTHTGEKPYTCSVCGKSMSRTTCL [F18M], the protein stability index came to 1.89.

Take RTHTGEKPYTCSVNGKSFSRTTCL [C14N]: the protein stability index is 2.87.

For RTHTGEKPYTCSVIGKSFSRTTCL [C14I], the protein stability index turned out to be 2.34.

For RTHTGEKPYTCSVLGKSFSRTTCL [C14L], the protein stability index turned out to be 2.76.

As for RTHTGEKPYTCSVGGKSFSRTTCL [C14G], the protein stability index stood at 1.99.

For the variant RTHTGEKPYTCSVPGKSFSRTTCL [C14P], the protein stability index worked out at 2.82.

Turning to RTHTGEKPYTCSVAGKSFSRTTCL [C14A], the protein stability index turned out to be 2.17.

RTHTGEKPYTCSVEGKSFSRTTCL [C14E]: the protein stability index is 2.46.

Consider RTHTGEKPYTCSVQGKSFSRTTCL [C14Q], for which the protein stability index came to 2.17.

RTHTGEKPYTCSVMGKSFSRTTCL [C14M]: the protein stability index came out at 2.88.

RTHTGEKPYTCSVDGKSFSRTTCL [C14D]: the protein stability index amounted to 2.77.

Take RTHTGEKPYTCSVHGKSFSRTTCL [C14H]: the protein stability index stood at 2.89.

Take RTHTGEKPYTCSVSGKSFSRTTCL [C14S]: the protein stability index is 2.41.

RTHTGEKPYTCSVRGKSFSRTTCL [C14R]: the protein stability index came to 2.19.

Regarding RTHTGEKPYTCSVWGKSFSRTTCL [C14W], the protein stability index is 1.42.

For RTHTGEKPYTCSVYGKSFSRTTCL [C14Y], the protein stability index worked out at 2.06.

Turning to RTHTGEKPYTCSVVGKSFSRTTCL [C14V], the protein stability index is 3.13.

Regarding RTHTGEKPYTCSVFGKSFSRTTCL [C14F], the protein stability index was 2.1.

With RTHTGEKPYTCSVTGKSFSRTTCL [C14T], the protein stability index is 2.46.

Turning to RTHTGEKPYTCSVKGKSFSRTTCL [C14K], the protein stability index is 3.06.

As for RTHTGEKPYTCSVCHKSFSRTTCL [G15H], the protein stability index is 1.81.

Regarding RTHTGEKPYTCSVCTKSFSRTTCL [G15T], the protein stability index was 1.65.

On to RTHTGEKPYTCSVCDKSFSRTTCL [G15D], for which the protein stability index turned out to be 2.36.

As for RTHTGEKPYTCSVCNKSFSRTTCL [G15N], the protein stability index is 1.92.

As to RTHTGEKPYTCSVCYKSFSRTTCL [G15Y], the protein stability index was determined as 1.32.

Take RTHTGEKPYTCSVCQKSFSRTTCL [G15Q]: the protein stability index came to 1.75.

As to RTHTGEKPYTCSVCVKSFSRTTCL [G15V], the protein stability index stood at 1.73.

Consider RTHTGEKPYTCSVCAKSFSRTTCL [G15A], for which the protein stability index was determined as 1.88.

As for RTHTGEKPYTCSVCPKSFSRTTCL [G15P], the protein stability index was 2.57.

Turning to RTHTGEKPYTCSVCFKSFSRTTCL [G15F], the protein stability index stood at 2.28.

For the variant RTHTGEKPYTCSVCSKSFSRTTCL [G15S], the protein stability index stood at 1.87.

In the case of RTHTGEKPYTCSVCCKSFSRTTCL [G15C], the protein stability index was determined as 1.83.

As for RTHTGEKPYTCSVCLKSFSRTTCL [G15L], the protein stability index was found to be 1.99.

On to RTHTGEKPYTCSVCMKSFSRTTCL [G15M], for which the protein stability index is 1.6.

Turning to RTHTGEKPYTCSVCKKSFSRTTCL [G15K], the protein stability index stood at 2.25.

As for RTHTGEKPYTCSVCRKSFSRTTCL [G15R], the protein stability index turned out to be 2.17.

On to RTHTGEKPYTCSVCIKSFSRTTCL [G15I], for which the protein stability index turned out to be 1.46.

In the case of RTHTGEKPYTCSVCWKSFSRTTCL [G15W], the protein stability index worked out at 1.43.

Consider RTHTGEKPYTCSVCEKSFSRTTCL [G15E], for which the protein stability index came out at 2.15.

For the variant RTHTGEKRYTCSVCGKSFSRTTCL [P8R], the protein stability index was 2.46.

With RTHTGEKWYTCSVCGKSFSRTTCL [P8W], the protein stability index is 2.9.

With RTHTGEKQYTCSVCGKSFSRTTCL [P8Q], the protein stability index is 3.05.

On to RTHTGEKYYTCSVCGKSFSRTTCL [P8Y], for which the protein stability index came out at 2.95.

Take RTHTGEKNYTCSVCGKSFSRTTCL [P8N]: the protein stability index amounted to 2.93.

As to RTHTGEKVYTCSVCGKSFSRTTCL [P8V], the protein stability index amounted to 2.59.

Take RTHTGEKTYTCSVCGKSFSRTTCL [P8T]: the protein stability index stood at 2.86.

Take RTHTGEKSYTCSVCGKSFSRTTCL [P8S]: the protein stability index was found to be 2.17.

Consider RTHTGEKPYTCSVCGMSFSRTTCL [K16M], for which the protein stability index is 2.2.

On to RTHTGEKPYTCSVCGCSFSRTTCL [K16C], for which the protein stability index was determined as 2.16.

RTHTGEKPYTCSVCGDSFSRTTCL [K16D]: the protein stability index was 2.08.

Turning to RTHTGEKPYTCSVCGSSFSRTTCL [K16S], the protein stability index was found to be 1.75.

Take RTHTGEKPYTCSVCGNSFSRTTCL [K16N]: the protein stability index was 2.58.

With RTHTGEKPYTCSVCGLSFSRTTCL [K16L], the protein stability index stood at 2.09.

Consider RTHTGEKPYTCSVCGYSFSRTTCL [K16Y], for which the protein stability index is 1.87.

Turning to RTHTGEKPYTCSVCGASFSRTTCL [K16A], the protein stability index is 1.85.

RTHTGEKPYTCSVCGWSFSRTTCL [K16W]: the protein stability index is 1.84.

As for RTHTGEKPYTCSVCGVSFSRTTCL [K16V], the protein stability index turned out to be 1.96.

On to RTHTGEKPYTCSVCGHSFSRTTCL [K16H], for which the protein stability index stood at 1.99.

As to RTHTGEKPYTCSVCGISFSRTTCL [K16I], the protein stability index amounted to 1.74.

As to RTHTGEKPYTCSVCGRSFSRTTCL [K16R], the protein stability index was found to be 2.45.

For RTHTGEKPYTCSVCGGSFSRTTCL [K16G], the protein stability index came to 2.41.

For the variant RTHTGEKPYTCSVCGTSFSRTTCL [K16T], the protein stability index is 1.94.

Turning to RTHTGEKPYTCSVCGFSFSRTTCL [K16F], the protein stability index stood at 1.77.

Take RTHTGEKPYTCSVCGQSFSRTTCL [K16Q]: the protein stability index is 2.6.

In the case of RTHTGEKPYTCSVCGPSFSRTTCL [K16P], the protein stability index was 1.81.

As to RTHTGEKPYTCSVCGESFSRTTCL [K16E], the protein stability index was 2.61.

As to RTHTGEKPYTKSVCGKSFSRTTCL [C11K], the protein stability index amounted to 2.25.

Turning to RTHTGEKPYTSSVCGKSFSRTTCL [C11S], the protein stability index was found to be 2.52.

As to RTHTGEKPYTMSVCGKSFSRTTCL [C11M], the protein stability index came to 3.35.

Turning to RTHTGEKPYTWSVCGKSFSRTTCL [C11W], the protein stability index is 1.82.

As for RTHTGEKPYTESVCGKSFSRTTCL [C11E], the protein stability index was 2.48.

Turning to RTHTGEKPYTASVCGKSFSRTTCL [C11A], the protein stability index turned out to be 2.88.

RTHTGEKPYTISVCGKSFSRTTCL [C11I]: the protein stability index is 2.01.

RTHTGEKPYTFSVCGKSFSRTTCL [C11F]: the protein stability index was found to be 2.23.

Turning to RTHTGEKPYTHSVCGKSFSRTTCL [C11H], the protein stability index worked out at 1.99.

Take RTHTGEKPYTLSVCGKSFSRTTCL [C11L]: the protein stability index turned out to be 2.43.

RTHTGEKPYTRSVCGKSFSRTTCL [C11R]: the protein stability index was 2.39.

In the case of RTHTGEKPYTQSVCGKSFSRTTCL [C11Q], the protein stability index stood at 3.18.

As to RTHTGEKPYTVSVCGKSFSRTTCL [C11V], the protein stability index amounted to 2.24.

As to RTHTGEKPYTDSVCGKSFSRTTCL [C11D], the protein stability index came out at 2.83.

With RTHTGEKPYTYSVCGKSFSRTTCL [C11Y], the protein stability index was found to be 1.86.

Consider RTHTGEKPYTPSVCGKSFSRTTCL [C11P], for which the protein stability index worked out at 2.56.

Consider RTHTGEKPYTNSVCGKSFSRTTCL [C11N], for which the protein stability index is 2.79.

Regarding RTHTGEKPYTTSVCGKSFSRTTCL [C11T], the protein stability index is 2.39.

As for RTHTGEKPYTGSVCGKSFSRTTCL [C11G], the protein stability index is 2.33.

RTHTGEKPYTCSVCGKTFSRTTCL [S17T]: the protein stability index amounted to 2.63.
